What all share (settings): 20 nM; 72 h
The subject of data set [1] is MCF10A. Kind of data set: percent viability (nuclei count relative to siNT); higher = more viable cells. How it is done:
(§1)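 After 72 h, cells were fixed and stained with Hoechst and anti-fibrillarin, and nucleoli per nucleus were counted with CellProfiler. Values are plate-adjusted percent effect for the one-nucleolus and 5+ nucleoli phenotypes, normalised to siNT (0%) and to the positive controls siNOL11 or siKIF11 (100%), as the mean of biological triplicates. Percent viability is the nuclei count relative to siNT.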

Data set [2] deals with MCF10A. Nature of the data set: 5+ nucleoli phenotype percent effect (relative to siNT 0% and siKIF11 100%); higher = more cells with five or more nucleoli. Here is the method:
as §1

Data set [3] concerns MCF10A. Nature of the data set: one-nucleolus phenotype percent effect (relative to siNT 0% and siNOL11 100%); higher = more cells with one nucleolus (ribosome biogenesis inhibition). Here is the method:
as §1

From the supplement of paper PMC10899765 come the findings set out here.

With GAUGAUGCUGCUGAUGCUG [hsa-miR-1322], the percent viability in the data set with MCF10A [1] stood at 41.1%. For the same sequence, the “5+ nucleoli phenotype percent effect” value in the data set on MCF10A [2] was -20.7%. The “one-nucleolus phenotype percent effect” value with MCF10A [3] was 24.5%.
Regarding “GAAAGCGCUUCCCUUUGCUGGA [hsa-miR-518a-3p]”, the percent viability in the data set on MCF10A [1] was determined as 59.1%. The “5+ nucleoli phenotype percent effect” value in the data set on MCF10A [2] was -15.5%. Moreover, the “one-nucleolus phenotype percent effect” value in the data set on MCF10A [3] was 17.4%.
On the same counts, the results for CCUCUAGAUGGAAGCACUGUCU [hsa-miR-517-5p] are 56%, 23.9% and 2.26%.
Turning to “CAGCCACAACUACCCUGCCACU [hsa-miR-449b-3p]”, the percent viability with MCF10A [1] turned out to be 71.9%. The “5+ nucleoli phenotype percent effect” value in the data set on MCF10A [2] is 1.67%. Further, the “one-nucleolus phenotype percent effect” value with MCF10A [3] is -5.19%.
For UGAGGGAGUAGGAUGUAUGGUU [hsa-miR-4510], the percent viability in the data set with MCF10A [1] is 16.6%. Moreover, the “5+ nucleoli phenotype percent effect” value with MCF10A [2] was -17.6%. Besides, the “one-nucleolus phenotype percent effect” value in the data set on MCF10A [3] was 13.3%.
Turning to CCAGUGGGGCUGCUGUUAUCUG [hsa-miR-194-3p], the percent viability in the data set with MCF10A [1] stood at 138%. The “5+ nucleoli phenotype percent effect” value in the data set on MCF10A [2] was determined as 10.5%. For the same sequence, the “one-nucleolus phenotype percent effect” value in the data set on MCF10A [3] is -11.8%.
Taken in the same sequence, the figures for UCGACCGGACCUCGACCGGCU [hsa-miR-1307-5p] were 78.8%, 13.2% and -17.3%.
On the same counts, the results for “AAAAACCACAAUUACUUUUGCACCA [hsa-miR-548t-3p]” are 157%, 39.3% and -19.6%.
On the same counts, the results for “CAGCCAGCCCCUGCUCACCCCU [hsa-miR-6858-3p]” are 30.6%, 3.04% and 16.5%.
With UCCUCAUCACACUGCACCUUAG [hsa-miR-6072], the percent viability in the data set with MCF10A [1] was 32.4%. In addition, the “5+ nucleoli phenotype percent effect” value in the data set with MCF10A [2] was -18.4%. The “one-nucleolus phenotype percent effect” value in the data set on MCF10A [3] came out at 13.4%.
Taken in the same sequence, the figures for UAAGGGGUGUAUGGCAGAUGCA [hsa-miR-3936] were 19.2%, -17.6% and 36.7%.
Taken in the same sequence, the figures for AUCCCACCUCUGCCACCA [hsa-miR-1260a] were 42.3%, 24.8% and -2.14%.
On the same counts, the results for “UGCCCUGCCUGUUUUCUCCUUU [hsa-miR-3173-5p]” are 148%, 35.2% and -24.3%.
As for “UUGGAAUAGGGGAUAUCUCAGC [hsa-miR-6505-5p]”, in the data set with MCF10A [1], the percent viability was determined as 36.9%. Besides, the “5+ nucleoli phenotype percent effect” value in the data set on MCF10A [2] is -46.6%. Further, the “one-nucleolus phenotype percent effect” value in the data set with MCF10A [3] is 29.1%.
As for GCUUCUGUAGUGUAGUC [hsa-miR-3182], in the data set on MCF10A [1], the percent viability is 57%. Also, the “5+ nucleoli phenotype percent effect” value in the data set with MCF10A [2] worked out at 35.6%. Further, the “one-nucleolus phenotype percent effect” value in the data set on MCF10A [3] was -17.1%.
As for “CAGGAGUGGGGGGUGGGACGU [hsa-miR-4433b-3p]”, the percent viability with MCF10A [1] worked out at 65.1%. Besides, the “5+ nucleoli phenotype percent effect” value with MCF10A [2] was 3.45%. For the same sequence, the “one-nucleolus phenotype percent effect” value with MCF10A [3] is -5.4%.
Taken in the same sequence, the figures for ACUCUAGCUGCCAAAGGCGCU [hsa-miR-1251] were 80.4%, 11.2% and -4.32%.
For the sequence “ACAACAGUGACUUGCUCUCCAA [hsa-miR-4709-5p]”, in the data set with MCF10A [1], the percent viability worked out at 73.8%. The “5+ nucleoli phenotype percent effect” value with MCF10A [2] is -18.3%. Besides, the “one-nucleolus phenotype percent effect” value with MCF10A [3] was 3.79%.
On to AAAAUGGUUCCCUUUAGAGUGU [hsa-miR-522-3p], for which the percent viability with MCF10A [1] was 66.3%. Moreover, the “5+ nucleoli phenotype percent effect” value with MCF10A [2] came to 28.6%. For the same sequence, the “one-nucleolus phenotype percent effect” value with MCF10A [3] is -12.4%.
Taken in the same sequence, the figures for CUAUACAACCUACUGCCUUCCC [hsa-let-7b-3p] were 32.4%, -18.8% and 10.1%.
On the same counts, the results for “UUGAAGGGACAAGUCAGAUAUGCC [hsa-miR-6864-5p]” are 25.6%, -1.47% and 17.8%.
Taken in the same sequence, the figures for “UCCCCCAGGUGUGAUUCUGAUUU [hsa-miR-361-3p]” were 74.8%, 21.5% and -5.19%.
Take GGCGGGUGCGGGGGUGG [hsa-miR-3656]: the percent viability with MCF10A [1] is 148%. The “5+ nucleoli phenotype percent effect” value in the data set on MCF10A [2] was determined as 37.2%. Further, in the data set with MCF10A [3], the “one-nucleolus phenotype percent effect” value is -15.8%.
AGAAGAAGGCGGUCGGUCUGCGG [hsa-miR-3185]: the percent viability with MCF10A [1] was 29.1%. The “5+ nucleoli phenotype percent effect” value in the data set with MCF10A [2] is -27.8%. Moreover, the “one-nucleolus phenotype percent effect” value in the data set on MCF10A [3] came out at 33.8%.
